32 sequences from the supplement of paper PMC9170038 can be followed below.

In the data set the test system is MS2 coat protein. The data set can be described thus: apparent KD of MS2 coat protein; designed switch direction (-1 OFF switch, 1 ON switch): -1; higher = weaker reporter binding. Put shortly: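 The apparent KD reported per design is the median over clusters of curve fits to normalised cluster fluorescence. The RNA switches were transcribed on Illumina chips by stalled E. coli RNA polymerase. SNAP-549-labelled MS2 coat protein was titrated from 0.7 or 1.5 nM, doubling up to 3 µM, in Tris-HCl pH 7.5 buffer containing KCl, MgCl2, BSA, DTT, tRNA and Tween-20, with no input, 200 uM small-molecule ligand, or an oligonucleotide input.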

[1] abbreviates: Eterna round: R95, input ligand: microRNA oligo, concentration not stated.
[2] abbreviates: input ligand: microRNA oligo, concentration not stated.
[3] abbreviates: Eterna round: R95, input ligand: FMN 200 uM.
[4] abbreviates: Eterna round: R95, input ligand: none.

For the sequence “AAGAACUUAGGAUAUACAUGAGGAUCACCCAUGUAGCUUCACUUGGGCCUGAGCCCGUGUAGAAGGAAGAAAAU [Arge] (puzzle: Exclusion 3)”, the “apparent KD of MS2 coat protein” value under setting [1] is 66 nM.
Turning to “AAGAAGAAGUAAGGAUAUGAAGAUCUGGUGGUGACAUGAGGAUCACCCAUGUGAAAACGAUGAGAUCAGAAGGUACAAGAAGAA [AK ExNG2-3.4] (Eterna round: R96, puzzle: Exclusion NG 2)”, the “apparent KD of MS2 coat protein” value reads like this: (input ligand: FMN 200 uM) 86.4 nM; under setting [2], 65.3 nM; (input ligand: none) 77.8 nM.
For “AAGAAGAUAGGAUAUACGAGGAGAGAAGAGAAGAAAGGAGGACAUGAGGAUCACCCAUGUAGAAGGAUCAGGAA [JR_Exclu2_Sub061] (puzzle: Exclusion 2)”, the “apparent KD of MS2 coat protein” value runs as follows: under setting [3], 50.2 nM; under setting [1], 41 nM; under setting [4], 40.5 nM.
Turning to “AAGAAGCGAGGAUAUGCAAAAGAAAAGAAGAAGAAGAAAGAACAUGAGGAUCACCCAUGUAGAAGGCGCAAGAA [Mine, too!] (puzzle: Exclusion 2)”, the “apparent KD of MS2 coat protein” value came to 19.8 nM under setting [3], 20.8 nM under setting [1] and 22.2 nM under setting [4].
As to “AAGAAGUAAGGAUAUGGCCGGGUCCCUGGGUUUGGACCCGGCUAGAAGGUACAUGAGGAUCACCCAUGUAAGAA [Excls4-IX] (puzzle: Exclusion 4)”, under setting [1], the “apparent KD of MS2 coat protein” value amounted to 13.1 nM.
Consider “AAGAAUCUAGGAUAUUAGCGGGCCUACAUGAGGAUCACCCAUGUCGUGUCGCGGGUAUGCUGAGAAGGAGAGCACA [EX5 B.5] (Eterna round: R97, puzzle: Exclusion 5)”, for which the “apparent KD of MS2 coat protein” value (input ligand: FMN 200 uM) amounted to 16.3 nM and the “apparent KD of MS2 coat protein” value (input ligand: none) is 16.3 nM.
For “AAGACAAAUGUAGGAUAUGCGUGGCGAAGCUAUGCAGAAGGACAUGAGGAUCACCCAUGUCUUAGCGUCUGCGUACAGAUGCUA [JL eng1 1.35 mod 9] (Eterna round: R96, puzzle: Exclusion NG 1)”, the “apparent KD of MS2 coat protein” value under setting [2] was 12.1 nM.
Turning to “AAGAGGAUCGGAGGAUAUGGAGCUGAAACGGCGCUAGAAGGCCGUCCAGUGUAACAUGAGGAUCACCCAUGUAGGGACCUCUAA [EX ng 1 4.1] (Eterna round: R96, puzzle: Exclusion NG 1)”, the “apparent KD of MS2 coat protein” value runs as follows: (input ligand: FMN 200 uM) 314 nM; under setting [2], 65.5 nM; (input ligand: none) 102 nM.
As for “AAGAGGCUAGGAUAUACAUGAGGAUCACCCAUGUGAGGGCACGGCCGGCGCGUGGCCGGUAGAAGGAGUCAAAA [Exc;s3-VIII] (puzzle: Exclusion 3)”, under setting [1], the “apparent KD of MS2 coat protein” value was 17.5 nM.
For “AAGAUGCGGAUAGGAUAUGGAGAGAAAGAAAGACCAGAAGGAUUGGUCAUAUAACAUGAGGAUCACCCAUGUAUAUGUUGUGAA [AK ExNG1-3.2] (Eterna round: R96, puzzle: Exclusion NG 1)”, the “apparent KD of MS2 coat protein” value under setting [2] is 13 nM.
“AAGAUUAUUUCAGGAUAUAGAUUGAUGAUCGUACUAGAAGGGAAAACACAGUACAUGAGGAUCACCCAUGUUCAUGUAGUGCCA [Eternabot solution 29] (Eterna round: R96, puzzle: Exclusion NG 1)”: the “apparent KD of MS2 coat protein” value by setting is: (input ligand: FMN 200 uM) 17.2 nM; under setting [2], 13.4 nM; (input ligand: none) 17.4 nM.
Regarding “AAGCCUCAAGUUAGGAUAUUAAUAAGGCAAAUUAUUAAGAAGGGACAUGAGGAUCACCCAUGUAAAAUUCUCAC [Biedredi] (Eterna round: R97, puzzle: Brourd's mod of Exclusion 4)”, the “apparent KD of MS2 coat protein” value is, setting by setting: (input ligand: FMN 200 uM) 140 nM; (input ligand: none) 57.5 nM.
As to “AAGCGCGAGGCAGGAUAUGCAGAGCGGGUGGCCCGUGCAGAAAAUAACAUGAGGAUCACCCAUGUGCAGAAGGGCCGGGUGACC [Anataredra] (Eterna round: R96, puzzle: Exclusion NG 2)”, the “apparent KD of MS2 coat protein” value runs as follows: (input ligand: FMN 200 uM) 60.5 nM; under setting [2], 36.1 nM; (input ligand: none) 72.9 nM.
Take “AAGGUGUUAGGAUAUCGUAGUUUGUGGCAGACGGGAUUUUGCGAGAAGGAACAUGAGGAUCACCCAUGUCGGAU [JR_Exclu4_Sub041] (puzzle: Exclusion 4)”: the “apparent KD of MS2 coat protein” value under setting [1] worked out at 27.1 nM.
In the case of “AAGUACCGUCACGAAAGUGAUGGUACAACAAGUAAAUGUACAUGAGGAUCACCCAUGUCCUCAAUUGCUCGUCUUAU [Sensor 3 - 60] (puzzle: Sensor v3, turn-off variant 2)”, the “apparent KD of MS2 coat protein” value under setting [3] stood at 722 nM, the “apparent KD of MS2 coat protein” value under setting [1] was 202 nM and the “apparent KD of MS2 coat protein” value under setting [4] is 745 nM.
Take “AAGUAGACAGUGAGGAUAUUGGUGGAAUGACACAUUAAGAAGGUACAUGAGGAUCACCCAUGUGGGUAAUGUCG [Brourd's EX4 #26] (Eterna round: R97, puzzle: Brourd's mod of Exclusion 4)”: the “apparent KD of MS2 coat protein” value reads like this: (input ligand: FMN 200 uM) 64.8 nM; (input ligand: none) 45.8 nM.
Turning to “AAGUAUCAUGUAGGAUAUGCUAUCCGAACGGUAGCAGAAGGACAUGAGGAUCACCCAUGUUCUCAUCUGUGAGAACAGAUGUCU [Ex NG1 #5] (Eterna round: R96, puzzle: Exclusion NG 1)”, the “apparent KD of MS2 coat protein” value came to 95.2 nM (input ligand: FMN 200 uM), 19.4 nM under setting [2] and 22.3 nM (input ligand: none).
In the case of “AAGUGGUGAGGAUAUAUAUACCAAUCUUCGAGGCACGACCAACAUGAGGAUCACCCAUGUAGAAGGCACCACAA [Eternabot (Original) Solution 39] (Eterna round: R97, puzzle: Exclusion 2)”, the “apparent KD of MS2 coat protein” value stood at 32.7 nM (input ligand: FMN 200 uM) and 14.9 nM (input ligand: none).
On to “AAUAAACUAGGAUAUACAUGAGGAUCACCCAUGUGUCGCCACGUGCUUGCUCACUCGUGUAGAAGGAGUACGGA [Atisan] (puzzle: Exclusion 3)”, for which the “apparent KD of MS2 coat protein” value under setting [1] came out at 33.4 nM.
For the sequence “AAUAAAGGCCGAGGAUAUCGGAAAGGAAGUGUACGAGAAGGCGGCAAAAGAACAUGAGGAUCACCCAUGUGGGCCGAUCUUCCG [PowerStrip EXNG 1.2] (Eterna round: R96, puzzle: Exclusion NG 1)”, the “apparent KD of MS2 coat protein” value was 26.4 nM (input ligand: FMN 200 uM), 10 nM under setting [2] and 18 nM (input ligand: none).
As to “AAUAAAGGCCGAGGAUAUCGGAAAGGAAGUGUACGAGAAGGUGGCAAAAGAACAUGAGGAUCACCCAUGUGGGCCGAUCUUCCG [PowerStrip EXNG 1.4] (Eterna round: R96, puzzle: Exclusion NG 1)”, the “apparent KD of MS2 coat protein” value amounted to 33.3 nM (input ligand: FMN 200 uM), 28.8 nM under setting [2] and 29.9 nM (input ligand: none).
Turning to “AAUAACAAGCAGAUCCUAAACAUGAGGAUCACCCAUGUGCUCGUCUUGUAAAGUACUAUCACGAAAGUGAUAGUACA [Sensor 3, v1 - 59] (puzzle: Sensor v3, turn-off variant 1)”, the “apparent KD of MS2 coat protein” value reads like this: under setting [3], 67.5 nM; under setting [1], 186 nM; under setting [4], 76.5 nM.
In the case of “AAUAACAAGUUGAUCCUACACAUGAGGAUCACCCAUGUGCUCGUCUUGUAAAGUACUAUCACGAAAGUGAUAGUACA (Eterna round: R97, puzzle: Sensor, turn-off variant 1)”, the “apparent KD of MS2 coat protein” value is 50.2 nM (input ligand: FMN 200 uM) and 66 nM (input ligand: none).
For the sequence “AAUAACAGAGGAUAUACUGUUUUAUGUAUUUAUUAUUUUAAACAUGAGGAUCACCCAUGUAGAAGGCUGAAUGA [JMF 55] (puzzle: Exclusion 2)”, the “apparent KD of MS2 coat protein” value under setting [1] was 20.7 nM.
Take “AAUAACAUGUUGAUCAAAUACAUGAGGAUCACCCAUGUAUGCUUUUUGCUCGAUAAGAUCAACUAAUAAUAAUAAUA [StovNew/1-A] (Eterna round: R97, puzzle: Sensor, turn-off variant 1)”: the “apparent KD of MS2 coat protein” value by setting is: (input ligand: FMN 200 uM) 14 nM; (input ligand: none) 15.6 nM.
In the same order, the values of “AAUAACGAGCCGAUCCUCCACAUGAGGAUCACCCAUGUGUUCGUCUUGUAAAGUACUAUCACGAAAGUGAUAGUACA [mod jandersonlee] (Eterna round: R97, puzzle: Sensor, turn-off variant 1)” are 1100 nM and 1040 nM.
Consider “AAUAAGCAAGGAUAUACGACGCAGAGCGUCAGUGGGCGAUGACAUGAGGAUCACCCAUGUAGAAGGUGCACAUC [Veisbebi] (puzzle: Exclusion 2)”, for which the “apparent KD of MS2 coat protein” value under setting [1] came out at 81.5 nM.
Take “AAUAAGCUAGGAUAUACAUGAGGAUCACCCAUGUCCACGCUCUGGAGGGCUGAAUGAUGUAGAAGGAGCAGUGG [Zabier] (puzzle: Exclusion 3)”: the “apparent KD of MS2 coat protein” value reads like this: under setting [3], 17.2 nM; under setting [1], 19.2 nM; under setting [4], 13.9 nM.
Regarding “AAUAAUAAAGUCAGGAUAUCUAGAGCUGCGGCUCUAGAGAAGGGACAUGAGGAUCACCCAUGUCACUCAAUAAU [BmEx4/3-D3] (Eterna round: R97, puzzle: Brourd's mod of Exclusion 4)”, the “apparent KD of MS2 coat protein” value (input ligand: FMN 200 uM) was 18.1 nM and the “apparent KD of MS2 coat protein” value (input ligand: none) worked out at 14.7 nM.
For the sequence “AAUAAUCAUGUAGGAUAUGCGUGGCGAAGCUAUGCAGAAGGACAUGAGGAUCACCCAUGUUCUAGCGUCUGCGUACAGAUGCUA [Mat - Exclusion NG 1 - Mod of JL - D79] (Eterna round: R96, puzzle: Exclusion NG 1)”, the “apparent KD of MS2 coat protein” value by setting is: (input ligand: FMN 200 uM) 123 nM; under setting [2], 36.6 nM; (input ligand: none) 37.1 nM.
On to “AAUACAAGCUAUUGAUCCCACAUGAGGAUCACCCAUGUAGGUGGCGGUGACACCUCCUUUACGAUAGCUCGUCUUAU [Sensor-V1 #54] (Eterna round: R97, puzzle: Sensor, turn-off variant 1)”, for which the “apparent KD of MS2 coat protein” value turned out to be 141 nM (input ligand: FMN 200 uM) and 226 nM (input ligand: none).
With “AAUACUAACACGAAAGUGUUAGUAAAAUAAGCUUGUGGUACAUGAGGAUCACCCAUGUCCUCAUAAGCUCGUCUUAU [Mat - Sensor v3 - Turn-off var 2 - D43] (puzzle: Sensor v3, turn-off variant 2)”, the “apparent KD of MS2 coat protein” value by setting is: under setting [3], 23 nM; under setting [1], 75.4 nM; under setting [4], 21.4 nM.
